Measured values taken from patent US20250206841A1 (ADEPT THERAPEUTICS, published 2025).
Residue numbers refer to the chain shown, from its start.

T1: cynomolgus Trop-2-His protein (cynomolgus, UniProt P09758 27-274 (human entry))
T1 construct: also called cynmolgus Trop-His; Kactus Cat #TRP-CM121; not shown: His tag
T1 chain: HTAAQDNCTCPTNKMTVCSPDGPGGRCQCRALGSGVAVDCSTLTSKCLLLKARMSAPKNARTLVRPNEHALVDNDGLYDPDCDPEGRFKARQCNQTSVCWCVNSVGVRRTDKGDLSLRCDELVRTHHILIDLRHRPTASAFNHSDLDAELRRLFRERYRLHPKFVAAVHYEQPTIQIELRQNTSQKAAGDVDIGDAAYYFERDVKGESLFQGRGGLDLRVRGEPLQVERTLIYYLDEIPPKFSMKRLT

T2: human Trop-2-His protein (human, UniProt P09758 27-274)
T2 construct: extracellular domain; Assay paragraphs say only 'Trop-2-His'; also called hTrop-2; Kactus Cat #TRP-HM121; not shown: His tag
T2 sequence (looked up): T1 chain with V36M, N67S, S139G, V204I

B1: 12G6 (antibody, V domains shown)
VH: QEQLKESGGGLVQPGGSLTLSCKASGFDFNNYGVSWVRQAPGKGLEWIGYIYPAYHNTYYATWVNGRFTISSHNAQNTLYLQLNTLTAADTATYFCARDAGNTDYNFNLWGPGTLVTVSS
VL: DVVMTQTPASVEVAVGGTVTIKCQASEDIESYLAWYQQKPGQPPKLLIYEASKLASGVSSRFSGGGYGTEFTLTISGVECADAATYYCQQALTIGNVDNPFGGGSEVVVK
notes: Rabbit-derived clone; LEM construct: VH + rabbit IgG CH1 + human IgG1 CH2-CH3
B2: 2H3 (antibody, V domains shown)
VH: B1 VH with V12G, A100T, N102T
VL: B1 VL with I94V
notes: as for B1
B3: 9A5 (antibody, V domains shown)
VH: B1 VH with G49A, A54T, N102G
VL: B1 VL with V13A, K22N, E27Q, D28S
notes: as for B1
B4: 2H5 (antibody, V domains shown)
VH: QSLEESGGDLVQPGASLTLTCKASGFDLNNYSILWVRQAPGKGLEWIGCIYFSGGSTYYANWAKGRFAISKTSSTTVTLQMTSLTAADTATYFCARDDGTTSYYLNLWGPGTLVTVSS
VL: YDMTQTPASVSEPVGGTVTIKCQASEDIYNLLAWYQQKPGQPPKLLIYAASDLESGVPSRFKGSGSGTEYTLTISDLECADAATYYCQQAYTVGNIDNAFGGGTEVVVK
notes: as for B1
B5: 10E12 (antibody, V domains shown)
VH: B4 VH with S32A, I33M, F52I, S56T, Y59F, N61S, K64T
VL: B4 VL with E12A, P13A, N30S, A49D, E54A, A80D, V93I
notes: as for B1
B6: 8H2 (antibody, V domains shown)
VH: B4 VH with S32A, I33M, F52I, S56T, Y59F, N61S, K64T, T100S
VL: B4 VL with E12A, P13A, N30S, A49D, E54A, D76A, A80D, V93I, A99T
notes: as for B1
B7: 10F12 (antibody, V domains shown)
VH: B4 VH with K22R, I33M, F52I, S56T, Y59F, N61S, K64T, T100S
VL: B4 VL with E12A, P13A, N30S, Y48F, A49D, E54A, A80D, V93I
notes: as for B1
B8: 10D3 (antibody, V domains shown)
VH: B4 VH with S24A, I33M, F52I, S56T, N61S, A68T, T100S
VL: B4 VL with N30R, A49D, E54A, D76G, E78Q, A90G, V93I, A99S
notes: as for B1
B9: 69H10 (antibody, V domains shown)
VH: B1 VH with T19K, N31K, G49A, Y55F, N102T
VL: DVVMTQTASPVSAAVGGTVTIKCQASQSIYSYLSWYQQKPGQPPKLLIYEASKLASGVSSRFSGSGYGTEFTLTISGVECADAATYYCQQALTVGNVDNPFGGGSEVVVK
notes: as for B1
B10: 62A10 (antibody, V domains shown)
VH: QSLVESGGGLVQPEGSLTLTCKASGFDFNNYAVTWVRQAPGEGLEYIGFIGIRGHIYYANWAKGRFTISKTSSTTMTLQMTSLTVADTATYFCARGGLWTGNSYFDLWGPGTLVTVSS
VL: YDMTQTPASVEVAVGGTVTINCQASESISRYLAWYQQKPGQSPKPLIYRASTLASGVPSRFQGSGSGTEYTLTISDLECADAATYYCQQGYGYSTVDNAFGGGTEVVVK
notes: as for B1
B11: 70E2 (antibody, V domains shown)
VH: QSLEESGGGLVKPGGTLTLTCTVSGFDFSNYAMTWVRQAPGKGLEYIGFIGIRGNIYYANWAKGRFTISKTSSTTVTLQMTSLTVADTATYFCARGGLWTGNSYFDLWGPGTLVTVSS
VL: B10 VL with A13P, S27N, S29N, S42P, S51A, Q62K, T73S, D97G
notes: as for B1
B12: 73C2 (antibody, V domains shown)
VH: B11 VH with M33V, K42E, I50V, R53Y, N55D, I56F, T81P
VL: B10 VL with S29N, P39R, S42P, S51A, Q62K, D97G
notes: as for B1
B13: 71F10 (antibody, V domains shown)
VH: B11 VH with K12Q, G15A, T16S, N30S, Y31N, K42E
VL: B10 VL with E11S, V12A, S42P, Q62K, S66T, E69D, D97G
notes: as for B1
B14: 3E9 (antibody, V domains shown)
VH: B1 VH with T19K, G49A, Y55F, T58R, T62N, H73D, L79V, T85S, N102S, N106K
VL: B1 VL with E12S, V13A, E50D, K53T, G65S, A91D, I94V, K110E
notes: as for B1
B15: 3A4 (antibody, V domains shown)
VH: B1 VH with K5V, A24G, N31E, G49A, Y55F, N84H, N102T
VL: B1 VL with E12S, V13A, T20S, K22N, S31N, G65S
notes: as for B1

Biological target: T1, cynomolgus Trop-2-His protein
Test: BLI (Gator Prime), LEM supernatant Ab on HFC probe
Protocol: (§1) After three times of regeneration and neutralization of HFC probe (Gator, Cat #160003), LEM transfection supernatant samples to be tested in K buffer was diluted 1:1 in K buffer and immobilized onto HFC probe. […] The association and dissociation of human or cynomolgus Trop-2-His antigen from antibody was measured on BLI machine Gator Prime. Affinity was calculated using Gator Bio analysis software. Blank control was used for reference subtraction. 1 μg/ml of Sacituzumab govitecan was used as positive control.
(§2) Table 23 below summarizes the binding affinity of exemplary anti-Trop-2 antibodies in LEM transfection supernatant samples to human and cynomolgus Trop-2 using Gator.

Going from B1 to B2, the Kd falls from 0.911 nM to 0.113 nM (8.1-fold). The second binds more tightly here.

B3 and B4 are within 1.5-fold of each other in Kd: 0.698 nM for the first, 0.582 nM for the second.

B5 and B6 are within 1.5-fold of each other in Kd: 0.168 nM for the first, 0.221 nM for the second.

First: B7
Second: B8
The Kd of the first is lower: no more than 0.132 nM for the first, 0.455 nM for the second. The first binds more tightly here.

B9 and B10 are within 1.5-fold of each other in Kd: 0.893 nM for the first, 1.27 nM for the second.

Compared with B11, B12 is 5.2-fold higher in Kd: 0.892 nM for the first, 4.63 nM for the second.

B13 and B14 are within 1.5-fold of each other in Kd: 0.755 nM for the first, 0.538 nM for the second.

With B15 the Kd was 1.17 nM.

Compared with B1, B2 is 3.6-fold lower in koff: 0.00047 s⁻¹ for the first, 0.00013 s⁻¹ for the second.

First: B3
Second: B4
The koff of the first is 1.5-fold higher: 0.00041 s⁻¹ for the first, 0.00027 s⁻¹ for the second.

B5 and B6 are within 1.5-fold of each other in koff: 6.8e-05 s⁻¹ for the first, 9.6e-05 s⁻¹ for the second.

Compared with B7, B8 is 3.4-fold higher in koff: roughly 5.62e-05 s⁻¹ for the first, 0.00019 s⁻¹ for the second.

Compared with B9, B10 is 1.7-fold higher in koff: 0.00053 s⁻¹ for the first, 0.00092 s⁻¹ for the second.

Compared with B11, B12 is 2.9-fold higher in koff: 0.00059 s⁻¹ for the first, 0.0017 s⁻¹ for the second.

B13 and B14 are within 1.5-fold of each other in koff: 0.00054 s⁻¹ for the first, 0.00038 s⁻¹ for the second.

B15 gave a koff of 0.00069 s⁻¹.

B1 and B2 are within 1.5-fold of each other in kon: 603000 M⁻¹ s⁻¹ for the first, 727000 M⁻¹ s⁻¹ for the second.

Compared with B3, B4 is 2-fold lower in kon: 919000 M⁻¹ s⁻¹ for the first, 460000 M⁻¹ s⁻¹ for the second.

B5 and B6 are within 1.5-fold of each other in kon: 605000 M⁻¹ s⁻¹ for the first, 677000 M⁻¹ s⁻¹ for the second.

B7 and B8 are within 1.5-fold of each other in kon: 426000 M⁻¹ s⁻¹ for the first, 454000 M⁻¹ s⁻¹ for the second.

B9 and B10 are within 1.5-fold of each other in kon: 592000 M⁻¹ s⁻¹ for the first, 726000 M⁻¹ s⁻¹ for the second.

Going from B11 to B12, the kon falls from 657000 M⁻¹ s⁻¹ to 364000 M⁻¹ s⁻¹ (1.8-fold).

B13 and B14 are within 1.5-fold of each other in kon: 721000 M⁻¹ s⁻¹ for the first, 888000 M⁻¹ s⁻¹ for the second.

B15 gave a kon of 729000 M⁻¹ s⁻¹.

These binders were tested against T2, human Trop-2-His protein (assay: BLI (Gator Prime), LEM supernatant Ab on HFC probe).
Protocol: as §1, §2

Compared with B1, B2 is 4.5-fold lower in Kd: 1.22 nM for the first, 0.269 nM for the second.

B3 and B4 are within 1.5-fold of each other in Kd: 0.767 nM for the first, 0.822 nM for the second.

B5 and B6 are within 1.5-fold of each other in Kd: 0.173 nM for the first, 0.227 nM for the second.

First: B7
Second: B8
The Kd of the first is 3.2-fold lower: 0.173 nM for the first, 0.562 nM for the second.

B9 and B10 are within 1.5-fold of each other in Kd: 0.989 nM for the first, 0.959 nM for the second.

Going from B11 to B12, the Kd rises from 0.871 nM to 3.85 nM (4.4-fold).

B13 and B14 are within 1.5-fold of each other in Kd: 0.696 nM for the first, 0.675 nM for the second.

B15 was tested, and the Kd was 1.38 nM.

First: B1
Second: B2
The koff of the first is 3.6-fold higher: 0.00047 s⁻¹ for the first, 0.00013 s⁻¹ for the second.

Going from B3 to B4, the koff falls from 0.00041 s⁻¹ to 0.00027 s⁻¹ (1.5-fold).

B5 and B6 are within 1.5-fold of each other in koff: 6.8e-05 s⁻¹ for the first, 9.6e-05 s⁻¹ for the second.

Compared with B7, B8 is 2.8-fold higher in koff: 6.8e-05 s⁻¹ for the first, 0.00019 s⁻¹ for the second.

B9 and B10 are within 1.5-fold of each other in koff: 0.00046 s⁻¹ for the first, 0.00051 s⁻¹ for the second.

Going from B11 to B12, the koff rises from 0.00038 s⁻¹ to 0.0011 s⁻¹ (2.9-fold).

B13 and B14 are within 1.5-fold of each other in koff: 0.00032 s⁻¹ for the first, 0.00038 s⁻¹ for the second.

B15 gave a koff of 0.00069 s⁻¹.

B1 and B2 are within 1.5-fold of each other in kon: 386000 M⁻¹ s⁻¹ for the first, 488000 M⁻¹ s⁻¹ for the second.

Going from B3 to B4, the kon falls from 529000 M⁻¹ s⁻¹ to 331000 M⁻¹ s⁻¹ (1.6-fold).

B5 and B6 are within 1.5-fold of each other in kon: 391000 M⁻¹ s⁻¹ for the first, 423000 M⁻¹ s⁻¹ for the second.

B7 and B8 are within 1.5-fold of each other in kon: 391000 M⁻¹ s⁻¹ for the first, 339000 M⁻¹ s⁻¹ for the second.

B9 and B10 are within 1.5-fold of each other in kon: 465000 M⁻¹ s⁻¹ for the first, 532000 M⁻¹ s⁻¹ for the second.

First: B11
Second: B12
The kon of the first is 1.5-fold higher: 430000 M⁻¹ s⁻¹ for the first, 284000 M⁻¹ s⁻¹ for the second.

B13 and B14 are within 1.5-fold of each other in kon: 459000 M⁻¹ s⁻¹ for the first, 568000 M⁻¹ s⁻¹ for the second.

B15 showed a kon of 500000 M⁻¹ s⁻¹.
